Reference: article PMC5449587 (Nucleic Acids Research, 2017)

Biological target: the molecule itself
Experiment: crystal structure

B1: Burkholderia thailandensis deoxyribonuclease II (enzyme)
chain: MAISPRDEQNRSVDLWFAYKVPKLTKDADSDSASGYEYVYYDRQVGAVQKSPNLMNDPKGALFYTLDSVFGDPGDTTGWILYNDEMPADANRSNNATLGHTKGVIAFDIASSSALWLLHSWPKYASPSVPGVPTPLYGQTFLCLSLDLATAGKLAAQMALHQQPQVYLPRTGGLDHTSPLYALTQPLNASAPGDSDSLDFKTRGGVPFKVIAKNRKWGKDFWNDLVGPTLKADMYVETWIRGKIPPVLDSDGVHKTYDIKFIDLRKLGAPWAWPETQDHAKWGITTTDNWVCVGDINRMVTQEKRGGGTIAFQDPKLWKALCETDLIIPPPGKTDAQARAMIRKTHEPAE
B1: binds.
